Experimental data published in patent EP1960427B1.

Legend:
[1] = target: dimer-IgG (Wright et al.), small immune complex; experiment: flow cytometry, inhibition of dimer-IgG binding to human neutrophils
[2] = target: human IgG monomer (Sandoglobulin, Novartis) (human); experiment: BIAcore equilibrium binding, receptor injected over immobilised IgG; single-binding site
[3] = target: heat-aggregated IgG (HAGG); experiment: BIAcore equilibrium binding, receptor injected over immobilised HAGG; single-binding site
[4] = target: heat-aggregated IgG (HAGG); experiment: flow cytometry, block of HAGG binding to IIA1.6 cells with human FcγRIIb
[5] = target: heat-aggregated IgG (HAGG); experiment: cell-based or functional assay
[6] = target: immune complexes consisting of ovalbumin and anti-ovalbumin antibody (OVA ICs); experiment: cell-based or functional assay
[7] = target: heat-aggregated IgG (HAGG); experiment: BIAcore equilibrium binding over immobilised HAGG; two-binding site model, KD2
[8] = target: heat-aggregated IgG (HAGG); experiment: BIAcore equilibrium binding over immobilised HAGG; two-binding site model, KD1
[9] = target: dimer-IgG (Wright et al.), small immune complex; experiment: flow cytometry, inhibition of dimer-IgG binding to human neutrophils from two individuals
[10] = target: heat-aggregated IgG (HAGG); experiment: BIAcore equilibrium binding over immobilised HAGG
[11] = target: human IgG monomer (Sandoglobulin, Novartis) (human); experiment: BIAcore equilibrium binding over immobilised IgG
[12] = target: human IgG monomer (Sandoglobulin, Novartis) (human); experiment: BIAcore equilibrium binding over immobilised human IgG monomer; two-binding site model, KD2
[13] = target: human IgG monomer (Sandoglobulin, Novartis) (human); experiment: BIAcore equilibrium binding over immobilised human IgG monomer; two-binding site model, KD1

Substance	IC50 [1]	Kd [2]	Kd [3]	IC50 [4]	IC50 of HAGG-induced platelet activation (CD41 and CD62P positive platelets) [5]	IC50 of TNF-α release from MC/9 cells induced by OVA ICs [6]	fold more potent than the monomer protein [4]	Kd [7]	Kd [8]	fold more active than rsFcγRIIa monomer [1]	fold potency over rsFcγRIIa monomer, HAGG-induced platelet activation [5]	fold potency over rsFcγRIIa monomer, TNF-α release from MC/9 cells [6]	IC50 [9]	fold lesser KD1 than the KD of monomeric rsFcγRIIa [10]	fold greater avidity than the monomeric receptor [11]	Kd [12]	Kd [13]
recombinant soluble FcγRIIa monomer (rsFcγRIIa monomer), expressed in HEK 293E cells from pBAR426 (from UniProt P12318 34-217) (receptor)	10.5 µg/mL	1700 nM	1050 nM	–	–	–	–	–	–	–	–	–	–	–	–	–	–
rsFcγRIIa monomer (R&D Systems, Cat # 1330-CD/CF) (from UniProt P12318 36-218) (receptor)	–	–	–	2.08 µg/mL	20.9 µg/mL	17.7 µg/mL	–	–	–	–	–	–	–	–	–	–	–
recombinant soluble FcγRIIa head to tail homodimer (rsFcγRIIa dimer), construct of Figure 1 (pBAR397/pBAR427) (from UniProt P12318 34-215; P12318 36-215) (receptor)	1.1 µg/mL	–	–	0.0039 µg/mL	3.9 µg/mL	2.1 µg/mL	> 500 fold	99 nM	2.73 nM	10 fold	5 fold	8 fold	0.9 to 1.1 µg/mL	300 fold	300 fold	100 nM	3.2 nM
